The supplement of paper PMC10567573

B1: KRT33B (parent)
chain: YQSYFKTIEELQQKILCSKSENAR
B2: OAS1 (parent)
chain: YIGTHEYPHFSHRPSTLQAASTPQ

Variants of: B1
Experiment: protein stability index of a GFP-peptide fusion (GPS, HEK-293T) (PSI 1-6); higher = more stable
Conditions: c terminus: a fixed tail appended
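Note: lentivirally expressed fusions sorted by FACS into six bins by GFP to DsRed ratio, PSI derived from sequencing read proportions per bin multiplied by bin number.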

Protein stability index of substitutions, site by site:
N22: T 1.39; V 1.89; W 1.9; Y 1.86
A23: C 1.86; D 1.62; E 2.77; F 1.47; G 2.03; H 1.68; I 1.9; K 1.76; L 1.73; M 2.11; N 2.24; P 1.68; Q 2.36; R 2.13; S 2.21; T 2.27; V 2.35; W 1.57; Y 1.64
R24: A 1.94; C 2.4; D 1.78; E 1.88; F 1.47; G 2.55; H 1.71; I 1.79; K 1.84; L 2.15; M 1.92; N 2.02; P 2.13; Q 2.34; S 2.07; T 1.76; V 1.98; W 1.15; Y 1.3

Variants of: B2
Experiment: as above
Conditions: c terminus: a fixed tail appended

Protein stability index: each site, then its substitutions
L17: R 2; E 2.06; G 2.17; I 1.9; P 2.5
P8: N 2.05; H 2.45; G 1.39
A19: T 1.72; N 1.9; K 1.68; S 1.9; I 2.04; H 1.89; P 2.11; R 2.29; C 2.07
P23: S 2.27; K 1.91; R 1.86; H 2.4
F10: W 1.89; T 2.48; C 2.24; V 2.12; N 2.43
Y1: V 3.64; T 4.07; L 3.54; S 4; A 4.01
H9: Y 2.83; S 2.09; T 2.09; Q 2.12
S11: K 1.92; A 1.96; H 1.98; W 2.76; G 2.14; M 1.93; T 1.76
P14: D 2.1; L 1.7; C 1.78
Y7: E 3.16; H 2.18; V 2.12; K 3.34; A 2.23; D 3.16; L 2.06
A20: C 1.84; N 2.08; W 2.43; E 2.56; L 2.39; Y 1.89
Q24: H 2.15; S 1.94; R 1.86; W 2.25
E6: C 2.26; S 1.79; K 2.06; H 2.32; P 1.5; Y 1.89
T16: G 1.62; W 2.23; Y 1.98; F 1.92
H12: W 1.46; Y 1.92; M 1.68; T 2.03
S15: P 1.62; M 1.6; E 2.05; F 2.67; C 1.61; W 3.2
H5: K 2.47; P 2.45; R 2.35; I 1.93
S21: P 1.67; F 1.68; C 2.77; E 2.24; W 2.42; I 1.97; K 1.81; A 2.1; V 1.89
G3: F 2.35; K 2.48; T 2.29; V 1.95; D 1.75; N 2.3; I 2.6; Q 2.32
Q18: I 1.94; N 2.34; H 2.38; M 1.74; W 2.75
T4: K 2.15; I 1.84; L 1.81; Q 1.89
T22: P 2.17; D 2.64; E 1.8; L 1.78; I 2.13
R13: A 2.58; V 2.67; N 1.8; I 1.92; S 2.18
I2: F 2.67; A 2.29; E 4.18
